Entries after “also recorded” stand apart in the source; their conditions may differ.
Tests used:
BMP-6 gene expression = BMP-6 gene expression in wildtype brown adipocytes; format: cell-based, mouse; settings: acute treatment
WT brown preadipocytes = assay: Brown adipocyte differentiation, Oil Red O staining; format: cell-based, mouse; settings: for differentiation of brown preadipocytes, agent alone: brown preadipocyte cell line, single agent; for lipid accumulation as monitored by Oil Red O staining (brown adipocyte differentiation): 33 nM BMP, 10 days, absence of induction cocktail; for differentiation of brown preadipocytes, BMP plus insulin and T3: combination of BMP-6 or -7 plus insulin and T3
Protocol: (§1) Preadipocytes were grown to confluence (day 0) in differentiation medium (Dulbecco's modified […] medium containing 10% Fetal Bovine Serum supplemented with 20 nM insulin and 1 nM T3). Adipocyte differentiation was induced by treating confluent cells for 48 hours in differentiation medium further supplemented with 0.5 mM isobutylmethylxanthine (IBMX), 0.5 mM dexamethazone, and 0.125 mM indomethacin. After this induction period (day 2), cells were placed back to differentiation medium, which was then changed every second day.
(§2) Dishes were washed twice with phosphate-buffered saline and fixed with 10% buffered formalin for at least 1 hour at room temperature. Cells were then stained for 2 hours at room temperature with a filtered oil red 0 solution (0.5% oil red 0 in isopropyl alcohol), washed twice with distilled water, and visualized.
Brown fat precursor cells were isolated from intrascapular brown fat of newborn mice and immortalized by SV40 T antigen.
To begin to explore the role of BMPs on brown adipogenesis, the effect of six different BMPs on differentiation of WT brown preadipocytes was examined. In the absence of induction cocktail, 33 nM of BMPs were added to the normal culture medium and fresh medium was changed every 2 days.

UCP-1 = UCP-1 protein expression by Western blot in brown preadipocytes; format: cell-based, mouse; settings: combination of 20 nM insulin, 1 nM T3 and 8.3 nM BMP-7
From the text: (§3) PGC-1∀ and UCP-1 are two decisive cellular markers of brown adipocytes.

[1] = system: FAS (fatty acid synthase); assay: FAS protein expression in MEF whole cell lysates; format: cell-based, mouse; settings: MEF cells, presence of induction cocktail or TZD
Protocol: (§4) MEF cells were grown in culture media containing 1 μM of rosiglitazone, BMPs, or a combination of both for 10 days. Oil Red O staining was performed at the end of differentiation to monitor the degree of adipogenesis. […] Whole cell lysates were isolated from these cells to examine the expression of the adipogenic marker FAS (fatty acid synthase).

UCP-1 promoter = assay: UCP-1 expression reporter gene (UCP-1 promoter linked to firefly luciferase); format: cell-based; settings: 10 uM TZD and retinoic acid, presence of PPARγ and RxRa
From the text: Adaptive thermogenesis is an important component of energy homeostasis and a metabolic defense against obesity.

[2] = system: white preadipocytes (3T3-L1 cells); assay: White preadipocyte differentiation, Oil Red O staining; format: cell-based; settings: for insulin- and insulin/T3-induced differentiation of 3T3-L1 cells: BMP alone or combined with insulin
Protocol: as §1, §2

[3] = system: mouse embryonic fibroblasts (MEFs); assay: Adipogenesis in mouse embryonic fibroblasts, Oil Red O staining; format: cell-based; settings: MEF cells, 1 μM rosiglitazone plus BMP, 10 days
Protocol: To examine whether BMPs play a role in determining the fate of pluripotent stem cells toward brown adipocyte lineage, murine pluripotent cells, the effect of BMPs on adipogenesis was evaluated in mouse embryonic fibroblasts (MEFs), which were generated lab using the 3T3 protocol of Todaro and Green (J. Cell. Biol. 17:299-313 (1963)). The MEF cells were maintained in Dulbecco's Modified Eagle Medium (DMEM) supplemented with 10% FBS.
as §4

PPARγ = PPARγ mRNA and protein expression in brown preadipocytes; format: cell-based, mouse
From the text: as §3

p38 MAPK = assay: BMP signaling in WT brown preadipocytes, phospho-specific antibody Western blot; format: cell-based, mouse; settings: WT brown preadipocytes treated with recombinant BMP-6, phospho-specific antibodies (Thr180/Tyr182)
Protocol: (§5) Brown fat precursor cells were isolated from intrascapular brown fat of newborn mice and immortalized by SV40 T antigen. […] Following differentiation with an induction cocktail of 20 nM insulin, 1 nM thyroid hormone [3,5,3′-triiodothyronine (T3)], 0.5 μM dexamethazone, 0.125 mM indomethacin, and 0.5 mM isobutylmethylxanthine, pre-adipocytes became smaller, rounded up, accumulated fat, and the cytoplasm/nuclear-ratio increased dramatically. Once fully differentiated, multi-locular fat droplets could be detected both microscopically and by Oil Red-O staining. Expression of UCP-1 was detected at basal state and upon β-adrenergic stimulation, confirming the features of brown adipocytes (methods described in Klein et al., J. Biol. Chem. 274:34795-34802 (1999)).
(§6) To see if BMPs were able to transmit signals into these cells, the WT brown preadipocytes were treated with recombinant BMP-6 (R&D Systems).

Smad 1/5/8 = assay: as above; format: cell-based, mouse
Protocol: as §5, §6

PGC-1a = PGC-1a mRNA expression by quantitative RT-PCR in brown preadipocytes; format: cell-based, mouse
From the text: as §3

[4] = system: IRS-1 KO brown preadipocytes; assay: Differentiation of IRS-1 knockout brown preadipocytes; format: cell-based, mouse
Protocol: as §1, §2
These factors utilize a complex signaling pathway to exert their pleiotropic biological effects involving activation of their respective cell surface receptors and phosphorylation of several intracellular insulin/IGF-1 receptor substrates (IRS). To determine the role of this signaling pathway in the regulation of brown adipogenesis and metabolism, brown preadipocyte cell lines were generated from wild-type (WT) and different IRS knockout (KO) mice (Fasshauer et al., Mol Cell Biol 21:319-329 (2001); Tseng et al., J Biol. Chem. 277:31601-31611 (2002); Tseng et al., Mol Cell Biol 24:1918-1929 (2004)). These cells were studied in both their fibroblastic and differentiated states. […] This occurred not only at the levels of lipid accumulation, but also involved blockade of the normal pattern of progression in the transcriptional regulators of adipogenesis, such as C/EBPα and PPARγ, as well as thermogenic marker UCP-1.
The differentiation inductive effect of BMP-6 is more easily seen in brown adipocytes from IRS-1 knockout animals, which are known to have a defect in adipocyte differentiation. […]

[5] = system: Pref-1 (preadipocyte factor-1); assay: Pref-1 expression by quantitative RT-PCR in IRS-1 KO cells; format: cell-based, mouse; settings: 30 nM over six days
From the text: IRS-1 signalling plays an important role in insulin resistance, which is a hallmark of Type II diabetes.

[6] = standard induction conditions (W induction)

IGF-1: known inducer of adipocyte differentiation
BMP-6 gene expression (BMP-6 gene expression): acutely induce

N[C@@H](Cc1cc(I)c(Oc2ccc(O)c(I)c2)c(I)c1)C(=O)O [T3, 3,5,3′-triiodothyronine, reference compound]
differentiation of brown preadipocytes, agent alone (WT brown preadipocytes): pro-differentiative effects

insulin: known inducer of adipocyte differentiation
BMP-6 gene expression (BMP-6 gene expression): acutely induce | differentiation of brown preadipocytes, agent alone (WT brown preadipocytes): pro-differentiative effects

B1: BMP-5: bone morphogenetic protein 5, added at 33 nM to culture medium (protein, listed as Homo sapiens)
chain: NQNRNKSSSHQDSSRMSSVGDYNTSEQKQACKKHELYVSFRDLGWQDWIIAPEGYAAFYCDGECSFPLNAHMNATNHAIVQTLVHLMFPDHVPKPCCAPTKLNAISVLYFDDSSNVILKKYRNMVVRSCGCH
lipid accumulation as monitored by Oil Red O staining (brown adipocyte differentiation) (WT brown preadipocytes): weaker effect

B2: BMP-7: bone morphogenetic protein 7 (protein, listed as Homo sapiens)
chain: STGSKQRSQNRSKTPKNQEALRMANVAENSSSDQRQACKKHELYVSFRDLGWQDWIIAPEGYAAYYCEGECAFPLNSYMNATNHAIVQTLVHFINPETVPKPCCAPTQLNAISVLYFDDSSNVILKKYRNMVVRACGCH
UCP-1 expression, combination treatments (UCP-1): strongest induction | FAS protein expression [1]: induced FAS protein expression | TZD/RA-induced stimulation of UCP-1 promoter activity (UCP-1 promoter): enhanced | insulin- and insulin/T3-induced differentiation of 3T3-L1 cells [2]: Little to no effect | TZD effects on adipocyte differentiation (Oil Red O) [3]: potentiated the TZD effects | lipid accumulation as monitored by Oil Red O staining (brown adipocyte differentiation) (WT brown preadipocytes): substantial increase in lipid accumulation | differentiation of brown preadipocytes, agent alone (WT brown preadipocytes): pro-differentiative effects | differentiation of brown preadipocytes, BMP plus insulin and T3 (WT brown preadipocytes): strongly enhanced | differentiation of brown preadipocytes, insulin plus B7 (WT brown preadipocytes; combination with insulin): strong combination effects | PPARγ expression, combination treatments (PPARγ; combination of 20 nM insulin, 1 nM T3 and 8.3 nM BMP-7, Western blot): strongest induction

B3: BMP-6: Recombinant human BMP-6 (R & D Systems, MN) (protein, listed as Homo sapiens)
chain: RSASSRRRQQSRNRSTQSQDVARVSSASDYNSSELKTACRKHELYVSFQDLGWQDWIIAPKGYAANYCDGECSFPLNAHMNATNHAIVQTLVHLMNPEYVPKPCCAPTKLNAISVLYFDDNSNVILKKYRNMVVRACGCH
activation of p38 MAPK (p38 MAPK): quickly activated | activation of p38 MAPK (p38 MAPK; listed as BMP6): activation | activation of Smad 1/5/8 (Smad 1/5/8; WT brown preadipocytes treated with recombinant BMP-6): quickly activated | activation of Smad 1/5/8 (Smad 1/5/8; WT brown preadipocytes treated with recombinant BMP-6, listed as BMP6): activation | FAS protein expression [1]: induced FAS protein expression | PGC-1a mRNA expression at day 3 (PGC-1a; Q-RT-PCR, day 3): quickly induced | PGC-1a mRNA expression as differentiation progressed to day 9 (PGC-1a; Q-RT-PCR, to day 9): further increased | expression of PGC-1 during spontaneous differentiation (PGC-1a; addition of recombinant BMP-6): induced expression | PGC-1a mRNA expression at 0, 3, and 6 days after treatment (PGC-1a; quantitative RT-PCR, FIG. 3): increase | differentiation of white preadipocytes ([2]; 33 nM, 8 days): did not induce differentiation | insulin- and insulin/T3-induced differentiation of 3T3-L1 cells [2]: Little to no effect | WAT differentiation (3T3-L1), without induction ([2]; W/O induction): no change | differentiation of 3T3-L1 cells, with induction [2, 6]: inhibited the level of differentiation | differentiation of IRS-1 KO brown preadipocytes ([4]; 30 nM over six days): restores the defects in differentiation | BAT differentiation of IRS-1 knockout preadipocytes, without induction ([4]; W/O induction): no change | differentiation of IRS-1 knockout brown preadipocytes, with induction [4, 6]: rescue, at least partially; also recorded: enhanced the level of differentiation | TZD effects on adipocyte differentiation (Oil Red O) [3]: potentiated the TZD effects | morphology of wild-type brown pre-adipocytes (WT brown preadipocytes): cause changes in the morphology | lipid accumulation as monitored by Oil Red O staining (brown adipocyte differentiation) (WT brown preadipocytes): substantial increase in lipid accumulation | differentiation of wildtype brown preadipocytes, without induction (WT brown preadipocytes; absence of standard induction conditions (W/O induction)): increased the level of brown adipocyte differentiation | differentiation of brown preadipocytes, agent alone (WT brown preadipocytes): pro-differentiative effects | differentiation of brown preadipocytes, BMP plus insulin and T3 (WT brown preadipocytes): strongly enhanced | differentiation of wildtype brown preadipocytes, with induction (WT brown preadipocytes; [6]): enhance differentiation; also recorded: enhanced the level of differentiation | acceleration of differentiation (Oil Red O staining) (WT brown preadipocytes; wild-type brown adipocytes, presence of induction cocktail): 1 to 2 days | Pref-1 expression [5]: down-regulation | PPARγ protein expression (PPARγ; BMP-6 treatment, course of differentiation (0, 3, 6 days), Western blot): markedly induced; also recorded: approximately maximal by day 3; also recorded: increase | PPARγ mRNA expression (PPARγ; BMP-6 treatment, course of differentiation (0, 3, 6 days), quantitative RT-PCR): markedly induced; also recorded: approximately maximal by day 3; also recorded: increase | expression of PPARγ during spontaneous differentiation (PPARγ; addition of recombinant BMP-6): induced expression

B4: BMP-4: bone morphogenetic protein 4, added at 33 nM to culture medium (protein, listed as Homo sapiens)
chain: SPKHHSQRARKKNKNCRRHSLYVDFSDVGWNDWIVAPPGYQAFYCHGDCPFPLADHLNSTNHAIVQTLVNSVNSSIPKACCVPTELSAISMLYLDEYDKVVLKNYQEMVVEGCGCR
lipid accumulation as monitored by Oil Red O staining (brown adipocyte differentiation) (WT brown preadipocytes): substantial increase in lipid accumulation

B5: BMP-3: bone morphogenetic protein 3, added at 33 nM to culture medium (protein, UniProt P12645 363-472, looked up)
Bone morphogenetic protein 3: QWIEPRNCARRYLKVDFADIGWSEWIISPKSFDAYYCSGACQFPMPKSLKPSNHATIQSIVRAVGVVPGIPEPCCVPEKMSSLSILFFDENKNVVLKVYPNMTVESCACR
lipid accumulation as monitored by Oil Red O staining (brown adipocyte differentiation) (WT brown preadipocytes): no effect

Reference: US9132169B2, “Methods and compositions for modulating adipocyte function” (Joslin Diabetes Center, Inc., priority 2003, dated 2015)
